Experimental data: article PMC9253114, “Structures and gating mechanisms of human bestrophin anion channels” (Nature Communications, 2022)

B1: wild-type human bestrophin-1 (natural protein)
chain: MTITYTSQVANARLGSFSRLLLCWRGSIYKLLYGEFLIFLLCYYIIRFIYRLALTEEQQLMFEKLTLYCDSYIQLIPISFVLGFYVTLVVTRWWNQYENLPWPDRLMSLVSGFVEGKDEQGRLLRRTLIRYANLGNVLILRSVSTAVYKRFPSAQHLVQAGFMTPAEHKQLEKLSLPHNMFWVPWVWFANLSMKAWLGGRIRDPILLQSLLNEMNTLRTQCGHLYAYDWISIPLVYTQVVTVAVYSFFLTCLVGRQFLNPAKAYPGHELDLVVPVFTFLQFFFYVGWLKVAEQLINPFGEDDDDFETNWIVDRNLQVSLLAVDEMHQDLPRMEPDMYWNKPEPQPPYTAASAQFRRASFMGSTFNISLNKEEMEFQPNQEDEEDAHAGIIGRFLGLQSHDHHPPRANSRTKLLWPKRESLLHEGLPKNHKAAKQNVRGQEDNKAWKLKAVDAFKSAPLYQRPGYYSAPQTPLSPTPMFFPLEPSAPSKLHSVTGIDTKDKSLKTVSSGAKKSFELLSESDGALMEHPEVSQVRRKTVEFNLTDMPEIPENHLKEPLEQSPTNIHTTLKDHMDPYWALENRDEAHS
notes: human bestrophin-1 (hBest1), wild type; also called hBest1; WT hBest1; source: HEK293-F cells, Bacmam system, purified (GDN extraction, Ni-NTA, TEV cleavage, gel filtration)
B2: wild-type human bestrophin-2 (natural protein, UniProt Q8NFU1 1-509, looked up)
chain: MTVTYTARVANARFGGFSQLLLLWRGSIYKLLWRELLCFLGFYMALSAAYRFVLTEGQKRYFEKLVIYCDQYASLIPVSFVLGFYVTLVVNRWWSQYLCMPLPDALMCVVAGTVHGRDDRGRLYRRTLMRYAGLSAVLILRSVSTAVFKRFPTIDHVVEAGFMTREERKKFENLNSSYNKYWVPCVWFSNLAAQARREGRIRDNSALKLLLEELNVFRGKCGMLFHYDWISVPLVYTQVVTIALYSYFLACLIGRQFLDPAQGYKDHDLDLCVPIFTLLQFFFYAGWLKVAEQLINPFGEDDDDFETNFLIDRNFQVSMLAVDEMYDDLAVLEKDLYWDAAEARAPYTAATVFQLRQPSFQGSTFDITLAKEDMQFQRLDGLDGPMGEAPGDFLQRLLPAGAGMVAGGPLGRRLSFLLRKNSCVSEASTGASCSCAVVPEGAAPECSCGDPLLDPGLPEPEAPPPAGPEPLTLIPGPVEPFSIVTMPGPRGPAPPWLPSPIGEEEENLA
notes: human bestrophin-2 (hBest2), wild type; also called hBest2; WT hBest2; source: HEK293-F cells, Bacmam system, purified (GDN extraction, Ni-NTA, TEV cleavage, gel filtration)
B3: hBest1_(1–345) (domain or fragment, human, UniProt O76090 1-345, looked up)
chain: MTITYTSQVANARLGSFSRLLLCWRGSIYKLLYGEFLIFLLCYYIIRFIYRLALTEEQQLMFEKLTLYCDSYIQLIPISFVLGFYVTLVVTRWWNQYENLPWPDRLMSLVSGFVEGKDEQGRLLRRTLIRYANLGNVLILRSVSTAVYKRFPSAQHLVQAGFMTPAEHKQLEKLSLPHNMFWVPWVWFANLSMKAWLGGRIRDPILLQSLLNEMNTLRTQCGHLYAYDWISIPLVYTQVVTVAVYSFFLTCLVGRQFLNPAKAYPGHELDLVVPVFTFLQFFFYVGWLKVAEQLINPFGEDDDDFETNWIVDRNLQVSLLAVDEMHQDLPRMEPDMYWNKPEPQP
notes: also called hBEST1 345; AS truncated hBest1; source: HEK293-F cells, Bacmam system, purified (GDN extraction, Ni-NTA, TEV cleavage, gel filtration)
B4: bBest2_(1–345) (domain or fragment, bovine, UniProt E1BF86 1-345, looked up)
chain: MTVTYTARVAKARFGGFSKLLLLWRGSIYKLLWRELLCFLGLFMALSAAYRFVLTEEQKRYFEKLVLYCDRYASLIPVSFVLGFYVTLVVHRWWNQYLSMPLTDALMCVVVGTVHGHDERGRLYRRTLMRYAGLSGVLILRSVSTAVFKRFPTIDHVVEAGFMTREERKKFENLNSSYNKYWVPCVWFCNLAAQARREGRIRDNGAFKLLLEELNVFRSKCGMLFHYDWISVPLVYTQVVTIAVYSYFLACLIGRQFLDPAQGYKDHDLDLCVPIFTLLQFFFYAGWLKVAEQLINPFGEDDDDFETNFLIDRCFQVSMLAVDEMYDDLAMLEKDLYWDAAEARA
notes: PDB 6VX7 is the cited earlier bBest2 structure, another construct; also called bBEST2 345; AS truncated bovine Best2; source: HEK293-F cells, Bacmam system, purified (GDN extraction, Ni-NTA, TEV cleavage, gel filtration)

Columns and labels:
[1] = biological target: the molecule itself; test: cryo-EM structure; single-particle cryo-EM of purified channel in GDN (200 mM NaCl, 40 mM HEPES pH 7.8, 0.005% GDN); without Ca2+ (EGTA) or after a 30 s spike of 1 uM or 5 mM Ca2+; C5 symmetry refinement
[2] = biological target: the molecule itself; test: cryo-EM structure; single-particle cryo-EM of purified truncated channel (residues 1-345) in GDN, in the presence of 5 mM Ca2+; C5 symmetry refinement

Protein	stoichiometry N [1]	binding result [2]
B1	5	
B2	5	
B3		binds
B4		binds
